We go through 40 sequences from the nanobody polyreactivity screen of Harvey et al. (2022).

This data set in a line: yeast display, Sf9 membrane polyspecificity reagent, FACS + sequencing; frameworks hold sequencing errors. An outline of the steps:
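Nanobodies from a synthetic yeast display library (Saccharomyces cerevisiae BJ5465), induced 36–48 hours with galactose, were stained 1 hour at 4 °C with 10% biotinylated, detergent-solubilized Sf9 membrane reagent, enriched on streptavidin microbeads, then FACS-sorted. Anti-HA (expression) and streptavidin (reagent binding) fluorescence set low and high (top ~1%) gates. Polyreactivity labels come from the gate of origin. Genes were colony-PCR amplified, MiSeq 2 × 250 sequenced and filtered by CDR length.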
Consider “QVQLVESVVGLVQAGGSLRLSCAASGRIFFAYTMGWYRQAPGKERELVAAISSSGSTYYADSVKGRFTISRDNAKNTVYLQMNSLKPEDTAVYYLRVQRRAYRYDYWGQGTKVTVSS”, for which the “polyreactivity (PSR sort gate)” value is given as “high polyreactivity”.
As to “QVQLVESGGGLVQAGGSLRLSCAASGSTFEYNAMGWYRQAPGKERELVAAISRTANANYADSVKGRFTISRDNAKNTFYLQMNSLKPEETAVYYCAADFLDSKVHVRFGYWGQGTQVTVSS”, the “polyreactivity (PSR sort gate)” value is given as “low polyreactivity”.
Consider “QVQLVESGGRLVQAGGSLRLSCAASGSIFSYYAMGWYRQATGKERELVASISSAGSTNYADSVKGRFTISRDNAKNTVYLQMNSLKPEDTAVYYCNTDDDSSSTGYYSWGQGTQVTVSS”, for which the “polyreactivity (PSR sort gate)” value was “low polyreactivity”.
For “QVQLVESGGGLVQAGGSLRLSCAASGGIFRYYAMGWYRQAPGKERELVAAISKSGGRTYYADSVKGRFTISRDNAKNTVYLQMNSLKPEDTAVYYCNAEYTWHSGYDYWGQGTQVTVSS” the value was “low polyreactivity”.
Under “QVQLVESGGGLVQAGGSLRLSCAASGSTLPANAMGWYRQAPGKERELVAAITITTDGSTYYADSVKGRFTISRDNAKNTVYLQLNSLKPEDTAVYYCAVARYRYHIRKMGYWGQGTQVTVSS” stands “low polyreactivity”; under “QVQLVESGGGLVQAGGSLRLSCAASGSTFVPYTMGWYRQAPGKERELVAAISGSGGTDYADSVKGRFTISRDNAKITVYLQLNSLKPEDTAVYYCGTDGLDFWFIYDYWGQGTQVTVSS”, “low polyreactivity”; under “QGQLVESGGGLVQAGGSLRLSCAASGLTFGYYDMGWYRQAPGKERELVAAITVRGGSTYYADSVKGRFTISRDNAKNTVYLQINSLKPEDTAVYYFNKRLFWSRHYYYWGQGTQVTVSS”, “high polyreactivity”.
Take “QVQLVESGGGLVQAGGSLRLSCAASGRIFTTNAMGWYRQAPGKERELVAAITSGASTKYADSVKGRFTISRDNAKNTVYLQMNCLKPEDTAVYYCNAKRGVNLRSNWYSHLRMDHWGQGTQVTVSS”: the “polyreactivity (PSR sort gate)” value is reported as “low polyreactivity”.
“QVQLVESGGGLVQAGGSLRLSCAASGRIFAWNDMGWYRQAPGKERELVAAITSGGSTYYADSVKGRFTISRDNAKNTVYLQMNSLKPEDTAVYYCAAGSAYYSQRYFAYGYDSWGQGTQVTVSS”: the “polyreactivity (PSR sort gate)” value is recorded as “low polyreactivity”.
For “QVQLVESGGGLVQAGGSLRICCADSGLTFRFYSSGWYRQAPGKEMELVAAISRSGGSTYYADSVKGRFTISRDNAKNTVYLQMNSLKPEDSAVYYCAAGRRGGKHGGTRGGDYWGQGTQVTVSS” the value was “high polyreactivity”; for “QVQLVESGGGLVQAGGSLRLSCAASGRIFDTNAMGWYRQAPGKEREFVAAISRSGGSTYYADSVKGRFTISRDNAKNTVYLQMNSLKPEDTAVYYCAARWYVLQPLGYDASRYGYWGQGTQVTVSS”, “high polyreactivity”.
In the case of “QVQLVESGGGLVQAGGSLRLSCAASGSIFYRNVMGWYRQAPGKERELVAAITWSGGSTYYADSVKGRFTISRDNAKNTVYLQMNSLKPEDTAVYYCAAASKGTYRGKVSGYYYWGQGTQVTVSS”, the “polyreactivity (PSR sort gate)” value is listed as “high polyreactivity”.
For “QVQLVESGGGLVQAGGSLRLSCAASGSIFAYYAMGWYRQAPGKEMELVARIRRRSSSTFYADSVKGRFTISRDNAKNTVYLQMNSLKPEDTAVYYCAVRGPGTSTYWYHEYEYWGQGTQVTVSS” the value was “high polyreactivity”.
As for “QVQVVESGGGLVQAGGSLRLSCAASGFIFSFYAMGWYRQAPGKERELVAAINWSGGSTYYADSVKGRFTISRDNAKNTVYLQMNSLKPEDTAVYYCNAVQYFSIPKPVWLFVLRYYYWGQVTQVTVSS”, the “polyreactivity (PSR sort gate)” value is given as “low polyreactivity”.
For “QVQLVESGGGVVQAGGSLRLSCAASGRIFGPNDMGWYRQAPGKGRELVAAITDSGDITYYADSVKGRFTISRDTAKNTVNVQMNCLKPEDTAVNYFAADHTYENEYRGQGTQVTVSS” the value was “low polyreactivity”.
Under “QVQLVESGGGLVQAGGSLRLSCAASGSIFTENEMGWYRQAPGKERELVATITITGSTNYADSVKGRFTISRDNAKNTVYLQMNSLKPEDTAVYYCAAEQPYKSPWTFGGYDYWGQGTQVTVSS” stands “low polyreactivity”.
For “QVQLVESGGGLVQAGVSLRLSCAASGGTLSNYAMGWYRQAPGKERELVAAITYRGGSTYYADSVKGRFTISRDNAKNTVYLQMNSQKPEDTAVYSCAAPGFKPFSFDSWGQGTQVTVSS” the value was “low polyreactivity”.
In the case of “QVQLVESGGGLVQAGGSHRLSCAASGSNIRFYAMGWYRQAPGKEREFVAAITSSGGNTYYADSVKGRFTISRDNAKNSVYLHMNSLKPEDTAVYYCAARYYGYGFDYWGQGTQVTVSS”, the “polyreactivity (PSR sort gate)” value was “high polyreactivity”.
“QDQLVESGGGLVQAGGSLRLSCAASGSTFTYNTKGWYRQAPGKERELVAAITTSGGNTYYADSVKGRFTISRDNAKNTVYLQMNSLKPVDTAVYYCAAGYSWAEGDYWGQGTQVTVSS”: the “polyreactivity (PSR sort gate)” value was “low polyreactivity”.
Take “QVQLVESGGGLVQAGGSLRLSCAASGSIFAGNAMGWYRQAPGKERELVAAITWSGGSTYYADSVKGRFTISRDNAKNTVYLQMNSLKPEDTAVYYCAADPPGYVYGKRYYWGQGTQVTVSS”: the “polyreactivity (PSR sort gate)” value is “high polyreactivity”.
For “QVQLVESGGGLDQAGGSLRLSCAASGRIFRCYAMGWYREAPGKERELVAAISWSSGNTYYADSVKGRFTISRDNAKNTVYLQMNSLKAEDTAVYYCAADFKPTSRSNKYYYWGQGTQVTVSS” the value was “high polyreactivity”; for “QVQLVESGGGLLQAGGTLRLSCAASGITFWSYAMGWYRQAPGKERELVAAITIGGTTYYADSVKGRFTSSRDNAKNTVYLQMNSRKPEDTAVYYCAVDSTDQAPPTYDYWGQGTQVTVSS”, “low polyreactivity”.
Under “QVQLQESGGGMVQAGGSLRLSCAASGYISWADYMGWYRQAPGKERELVAGIGYGSTTYYADSVKGRFTISRDNAKNTAYLQMNSLKPQYTAVYYCAVGWYRDTAYKYWGQGTQVTVSS” stands “low polyreactivity”; under “QVQLVESGGGLVQAGGSLRLSCAASGRIFIPYAMAWYRQAPGNERELVAAISSSGGSTYYADSVKGRFTISRDNAKNTVYLQMNSLKPEDTAVYYCSALLYWWYAYETYSSLFEYDYWGQGTLVTVSS”, “low polyreactivity”.
Under “QVQLVESGGGLVQAGGSLRLSCAASGRTFWDNAMGWYRQAPAKERELVAAITFRGGTTYYADSVKGRFTISRDNAKNTVYIQMNSLKPEDTAVYYCAARNGLYRLYYYWGQGTQVTVSS” stands “high polyreactivity”; under “QVQLVESGGGLVQAGGSLRLSCAASGRIFTVYAMGWYRQAPGKERELVAAISGRGGRTYYADSVKGRFTISRDNAKNTVYLQMNSLTPEDTAVYYCADYSYVRSSYEVEYDYWGQGTQVTVSS”, “low polyreactivity”.
Regarding “QVQLVESGGGLVQAGGSLRLSCAASGSTFLVYAMGWYRPAPGKERELVAAITQIDGSTYNADSVKGRFTISRDNSKNTVYLQRHSLKPEDTAVYYCAARYFWTYEYDYWGQGTQVTVSS”, the “polyreactivity (PSR sort gate)” value was “low polyreactivity”.
For “QVQLVESGGCLVQAGGSLRLSCAASGRTSVIYAMGWYRQAPGKERELVASIRRGGSTSYADSVKGRFTISRDNAKNTVYLQMNSLKPEDTAVYYCAADRYTWRKSYDYWGQGTQVTVSS” the value was “high polyreactivity”.
For “QVQLVESGGGLVQAGGSLRLSCAASGSTFYTYAMGWYRQAPGKEMELVADITRGGSTYYADSVKGRFTISRDNAKNTVYLQMNSLKPEDTAVYYCAADYTWLSFFEFDYWGQGTQVTVSS” the value was “high polyreactivity”; for “QVQLVESGGGLVQAGGSLRLSCAASGSTFARYTMGWYRQAPGKERELVAAITSNGVSTYYADSVKGRFTISRDNAKNTVYLQMNSLKPEDTAVYYCAAEYRPRYKRIWVVTKDYWGQGTQVTVSS”, “low polyreactivity”; for “QVQLVESGGGLVQAGGSLRISCAASGRIFFTYVKGWYRQAPGKERELVATIRVSGGSTYYADSVKGRYTISRDNAKKTVYLQMNSLKPEDTAVYYCAASGAWWSLHYAGDFWGQGTQVTVSS”, “high polyreactivity”.
For the sequence “QFQLVESGRGLVQAGVSLRLSCASSGFTFILYAIGCYRQATGKERELVAGISNGGSTYYADSVKGRFTISRDNAKNTVYFQMNSLKPEDTAVDYCNRDLTFYLYVSGNYFGQGTQVTVSS”, the “polyreactivity (PSR sort gate)” value was “low polyreactivity”.
For “QVQLVESGGGLVQAGGSLRLSCAASGSIFYTNAKGWYRPAPGKERELVAAISYGGTTTYADSVKGRFTISRDNAKNTVYLQMNSLIPEDTAVYYCNADWLYYGYWGYGHIWYDFWGQGTQVTVSS” the value was “low polyreactivity”; for “QVQLVESGGGLVQAGGSLRLSCAASGLTINGNTMGLYRQAPGKERELVAVIDWSGGSTYYADSVKGRFTISRDNAKNTVYLQMNSLKPEDTAVYYCNAETRDPILYGEYDYWGQGTQVTVSS”, “low polyreactivity”; for “QVQLVESGGGLVQAGGSLRLSCAASGGIFKSYAMGWYRQAPGKERELVAAISASGGRTYYADSVKGRFTISRDNAKNTVYLQMNSLKPEDTAVYYCAAKVGYTTALNYWGQGTQVTVSS”, “high polyreactivity”.
Regarding “QVQLVESGGGLVQAGGSLRLSCAASGSIFSVNTMGWNRKAPGKERELVATIRTGDSTNYADSVKGRFTISRDNAKNSVYLQMNSLKPEDTAVYYCAAEWSSMNFDYWGQGTQVNVSS”, the “polyreactivity (PSR sort gate)” value is “low polyreactivity”.
For the sequence “QVHLVESGGGLVQAGGSLRLSCAASGSTFFIYTMGWYRQAPGKEREFVAAISWTGGRTYYADSVKGRFTISRDNAKNTVYLQMNSLKPEDTAVYYCAARYKYSSYDYWGEGTQVTVSS”, the “polyreactivity (PSR sort gate)” value is recorded as “high polyreactivity”.
Consider “QVHLVESGGGLVQAGGSLRLSCAASGSTSAYYVMGWYRQAPGKERELVAAIDFSGDSTYYADSVKGRFTISRDNAKNTVYLQMNSLKPEDTAVYYCAAELFYYSSLVTYEYWGQGTQVTVSS”, for which the “polyreactivity (PSR sort gate)” value is recorded as “high polyreactivity”.
Turning to “QVQLVESGGGLVQAGGSLRLSCAASGFTFYYYTLGWYRQAPGKVRELVARITTRGTSTYYADSVKGRFRISRDTPKNTVYLPMNSLKPEDTAVYYCAAQVGRGYEVYAVYKYGYWGQGTQVTVSS”, the “polyreactivity (PSR sort gate)” value was “high polyreactivity”.
Consider “QVQLVESGGGLVQAGGSLRLSCAASGRTFPRYGMGWYRQAPVKERELVATIRTGGRTNYADSVKGRFTISRDNAKNTVYVLMNSQKPEDTAVYYCATDSSKHPYSPTLLKFDYWGQGTQVTVSS”, for which the “polyreactivity (PSR sort gate)” value is given as “low polyreactivity”.
